Among the data in paper PMC4990988, “Defective recognition of LC3B by mutant SQSTM1/p62 implicates impairment of autophagy as a pathogenic mechanism in ALS-FTLD” (Autophagy, 2016) are Kd values, retold here.

This test addresses LC3B (microtubule-associated protein 1 light chain 3 β) (human, UniProt Q9GZQ8 1-120). Description: ITC; LIR peptide stock (350 µM) injected into LC3B in the cell, 298 K, 25 mM phosphate buffer, 150 mM NaCl, pH 7.5; one-site binding model. To be noted: both partners purified.

B1: WT LIR peptide (residues 332 to 351 of human SQSTM1) (peptide)
peptide: SGGDDDWTHLSSKEVDPSTG
notes: source: synthetic peptide (PeptideSynthetics, purity > 98%)
Regarding B1, binding was characterised by a dissociation constant (Kd) of 3.2 ± 1.1 µM.

B2: LIR (L341V) peptide (residues 332 to 351 of human SQSTM1 with L341V) (peptide)
peptide: SGGDDDWTHVSSKEVDPSTG
notes: SQSTM1/p62, human, residues 332 to 351 with the ALS-associated L341V mutation; also called L341V-mutant LIR; mutant LIR; source: synthetic peptide (PeptideSynthetics, purity > 98%)
Consider B2, for which the Kd is 10.9 ± 1.1 µM.
